{"source": "the RNAGym collection of RNA variant scans (doi:10.1073/pnas.2313332121)", "parents": {"B1": {"name": "TPR t1 (parent)", "chain": "GACCAAUCUGCCCUCAGAGCUCGAGAACAUCUUCGGAUGCAGAGGAGGCAGGCUUCGGUGGCGCGAUAGCGCCAACGUCCUCAACCUCCAAUGCAUCCCACCACAUGAUGAUGCCUGAAGAGCCUUGGUUUUUUG"}}}
{"variants_of": "B1", "assay": "polymerase ribozyme fitness, log enrichment relative to wild type (log ratio); higher = more active; in vitro selection for triplet polymerase activity", "in_short": "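Both subunits of a heterodimeric triplet polymerase ribozyme were given their own mutant library, built by PCR and transcribed. Each library was annealed with a biotinylated primer, the partner subunit and triplets, incubated frozen at −7 °C, and its extended constructs gel-excised, captured on streptavidin beads and amplified by RT-PCR, all in one round done in triplicate. Fitness is the logarithm of genotype enrichment relative to wild-type enrichment, with replicates averaged by inverse-variance weighting. That logarithm is base 2, and Illumina-sequenced genotypes needed ≥10 input reads and ≥1 read per output.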"}
{"variant": "GACCAAUCUGCCCUCAGAGCUCGAGAACAUCUUCGAAUGCAGAGGAGGCAGGCUUCGGUGGCGCGAUAGCGCCAACGUCCUCAACCUCCAAUGCAUCCCACCACAAGAUGAUGCCUAAAGAGCCUUGGUUUUUUG", "polymerase ribozyme fitness (log ratio)": -1.88}
{"variant": "GACCAAUCUGCCCUCAGAGCUCGAGAACAUCUUCGCAUGCAGAGGAGGCUGGCUUCGGUGGCGCGAUAGCGCCAACGUCCUCAACCUCCAAUGCAUCCCACCACAUGAUGAUGCCUGAAGAGCCUUGGUUUUUUG", "polymerase ribozyme fitness (log ratio)": -1.67}
{"variant": "GACCAAUCUGCCCUCAGAGCUCGAGAACAUCUUCGAAUGCAGAGGAGGCAGGCUUCGGUGGCGCGAUAGCGCCAACGUCCUCAACCUCCAAUGAAUCCCACCACAUGAUGAUGCCUGAAGAGCCUUGGUUUUUUG", "polymerase ribozyme fitness (log ratio)": -2.77}
{"variant": "GACCAAUCUGCCCUCAGAGCUCGAGAACAUCUUCGAAUGCAGAGGAGGCAGGCUUCGGUGGCGCGAUAGCGCCAACGUCCUCAACCUCCAAUGCAUCCCACAAAAUGAUGAUGCCUGAAUAGCCUUGGUUUUUUG", "polymerase ribozyme fitness (log ratio)": -4.83}
{"variant": "GACCAAUCUGCCCUCAGAGCUCGAGAACAUCUUCGAAUGCAGAGGAGGCAGGCUUCGGUGACGCGAUAGCGCCAACGUCCUCAACCUCCAAUGCAUCCCACCCCAUGAUGAUGCCUGUAGAGCCUUGGUUUUUUG", "polymerase ribozyme fitness (log ratio)": -5.74}
{"variant": "GACCAAUCUGCCCUCAGAGCUCGAGAACAUCUUCGAAUGCAGAGGAGGCAGGCUUCGGUGGCGCGAUAGCGCCAACGUCCUCAAGCUCCAAUGCAUCCCACCACAUGAUGAUGCCUGAAGAGCCUUGGUUCUUUG", "polymerase ribozyme fitness (log ratio)": -2.08}
{"variant": "GACCAAUCUGCCCUCAGAGCUCGAGAACAUCUUCGAAUGCAGAGGAGGCAGGCUUCGGUGGCGCGAUAGAGCCAACGUCCUCAACCUCCAAUGCAUCCCACCACAUGAUGAUGCCUGAAGAGCCUUGGUUUUUUG", "polymerase ribozyme fitness (log ratio)": -2.23}
{"variant": "GACCAAUCUGCCCUCAGAGCUCGAGAACAUCUUCGAAUGCAGAGGCGGCAGGCUUCGGUGACGCGAUAGCGCCAACGUCCUCAACCUCCCAUGCAUCCCACCACAUGAUGAUGCCUGCAGAGCCUUGGUUUUUUG", "polymerase ribozyme fitness (log ratio)": -6.53}
{"variant": "GACCAAUCUGCCCUCAGAGCUCGAGAACAUCUUCGAAUGCAGAGGAGGCAGGCUUCGGUGGCGCGAUAGCGGCAACGUCCUCAACCUCCAAAGCAUCCCACCACAUGAUGAUGCCUGAAGAGCCUUGGUUUUUUG", "polymerase ribozyme fitness (log ratio)": -5.43}
{"variant": "GACCAAUCUGCCCUCAGAGCUCGAGAACAUCUUCGAAUGCAGAGGAGGCAGGCUUCGGUGGCGCGAUAGCGCCAACGUCCUUAACCUCCAAUGCAUCCCACCACAUGAUGAUGCCUGAAGAGGCUUGGUUUUUUG", "polymerase ribozyme fitness (log ratio)": 0.9}
{"variant": "GACCAAUCUGCCCUCAGAGCUCGAGAACAUCUUCGAAUGAAGAGGAGGCAGGGUUCGGCGGCGCGAUAGCGCCAACGUCCUCAACCUCCAAUGCAUCCCACCACAUGAUGAUGCCUGAAGAGCGUUGGUUUUUUG", "polymerase ribozyme fitness (log ratio)": -2.06}
{"variant": "GACCAAUCUGCCCUCAGAGCUCGAGAACAUCUUCGAAUGCAGCGGAGGCAGGCUUCGGUGGCGCGAUAGCGCCAACGUCCUCAACCUCCAAUGCAUCCCACCACAUGAUGAUGCAUGAAGAGCCUUGGUUUUUUG", "polymerase ribozyme fitness (log ratio)": -3.76}
{"variant": "GACCAAUCUGCCCUCAGAGCUCGAGAACAUCUUCGAAUGCAGAGGAGGCAGGCUUCGGUGGCGGGAUAGCGCCAACGUCCUCAACCUCCAAUGCAUCCCACCAGAUGAUAAUGCCUGAAGAGCCUUUGUUUUUUG", "polymerase ribozyme fitness (log ratio)": -6.24}
{"variant": "GACCAAUCUGCCCUCAGAGCUCGAGAACAUCUUCGAAUGCAGAGCAGGCAGGCUUCGCUGGCGGGAUAGCGCCAACGUCCUCAACCUCCAAUGCAUCCCACCACAUGAUGAUGCCUUAAGAGCCUUGGUUUUUUG", "polymerase ribozyme fitness (log ratio)": -6.11}
{"variant": "GACCAAUCUGCCCUCAGAGCUCGAGAACAUCUUCGAAUGCACAGGAGGCAGGCUUCGGUGGCGCGAUAGCGCCAAGGUCCUCAACCUCCAAUGCAUCCCACCACAUGAUGAUGCCUGAAGAGCCUUGGUUUUUUG", "polymerase ribozyme fitness (log ratio)": -2.73}
{"variant": "GACCAAUCUGCCCUCAGAGCUCGAGAACAUCUUCGAAUGCAGAGGAGGCAGGCUUCAGUUGCGCGAUAGCGCCAACGUCCUCAACCUCCAAUGCAUCCCACCACAUGAUGAUGCCUGAAGAGCCUUGGUUGUUUG", "polymerase ribozyme fitness (log ratio)": -0.901}
{"variant": "GACCAAUCUGCCCUCAGAGCUCGAGAACAUCUUCGAAUGCAGAGGAGGCAUGCUUCGGUGGCGCGAUAGCGCCAACGUCCUCAACCUCCAAUGCAUCCCACCACAUGAUGAUGCCUGAAAAGCCUUGGUUUUUUG", "polymerase ribozyme fitness (log ratio)": -3.42}
{"variant": "GACCAAUCUGCCCUCAGAGCUCGAGAACAUCUUCGAAUGCAGAUGAGGCAGGCUUCGGUGGCGCGAUAGUGCCAACGUCCUCAACCUCCAAUGCAUCCCACCACAUGAUGCUGCCUGAAGAGCCUUGGUUUUUUG", "polymerase ribozyme fitness (log ratio)": -2.48}
{"variant": "GACCAAUCUGCCCUCAGAGCUCGAGAACAUCUUCGAAUGCAGAGGAGGCAGGCUUAGGUGACGCGAUAGCGCCAACGUCCUCAACCUCCAAUGCAUCCCACCACAUGAUGAUGCCUGAAGAGCCUUGGUUUUUUG", "polymerase ribozyme fitness (log ratio)": -2.16}
{"variant": "GACCAAUCUGCCCUCAGAGCUCGAGAACAUCUUCGAAUGCAGUGGAGGCAGGCUUCGGUGGUGCGAUAGCGCCAACGUCCUCAACCUCCAAUGCAUCCCACCACAUGAUGAUACCUGAAGAGCCUUGGUUUUUUG", "polymerase ribozyme fitness (log ratio)": -3.5}
{"variant": "GACCAAUCUGCCCUCAGAGCUCGAGAACAUCUUCGCAUGCAGAGGAGGCCGGCUUCGGUGGCGCGAUAGCACCAACGUCCUCAACCUCCAAUGCAUCCCACCACAUGAUGAUGCCUGUAAAGCCUUGGUUUUUUG", "polymerase ribozyme fitness (log ratio)": -1.49}
